Reference: the nanobody polyreactivity screen of Harvey et al. (2022)

Assay: yeast display, Sf9 membrane polyspecificity reagent, FACS + sequencing; frameworks hold sequencing errors
Summary of the method: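 Sorting gates, low and high (top ~1%), were placed on anti-HA fluorescence to track expression and on streptavidin fluorescence to track reagent binding. A clone's polyreactivity label is taken from the gate it came out of. The reagent was 10% biotinylated, detergent-solubilized Sf9 membrane, applied for 1 hour at 4 °C to galactose-induced yeast display cells.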

Sequence	polyreactivity (PSR sort gate)
QVQLVESVGGLVQAGGSLRLSCAASGFTFFHYAMGWYRQAPGKERELVAAINTRGSRTYYADSVKGRFTISRDNAKNTVYLQMNSLKPEDTAVYYCAADSVQVYAWQYYYWGQGTQVTVSS	high polyreactivity
QVQLVESVGGLVQAGGSLRLSCAASGFTFKYYAMGWYRQAPGKERELVAAITGTGGSTYYADSVKGRFTISRDTAKNTVYLLMNSLKPEDTAVYYCNAGSARGYVPYDSFAYDYWGQGTQVTVSS	low polyreactivity
QVQLVESVGGLVQAGGSLRLSCAASGFTFRANAMGWYRQAPGKERELVAAINWSGTSTYYADSVKGRFTISRDNAKNTVYLQMNSLKPEDTAVYYCAVLFYGAKYDYWGQGTQVTVSS	low polyreactivity
QVQLVESVGGLVQAGGSLRLSCAASGFTFRYYAMGSYRQAPGKERELVAAISRTGRTYYADSVKGRFTISRDNAKNTVYLQMNSLKPEDTAVYYCAADPPGYVFGKRYYWGHGTQVTVSS	high polyreactivity
QVQLVESVGGLVQAGGSLRLSCAASGFTFSWSTKGWYRQAHAKERELVATISWSGSRTYYADSVKGRFTISRDNAKNTVYLEINSLKPEDTAVYYCNVAPHRQVFYTGQYDYWGQGTQVTVSS	high polyreactivity
QVQLVESVGGLVQAGGSLRLSCAASGFTFYKNAMGWYRQATGKERELVAPITKSGGRTYYADSVKGRFTISRDYAKNTVYLQMNCLKPEDNAVYYCAADISPFGRQPCVIRYSWGQGTQVTVSS	high polyreactivity
QVQLVESVGGLVQAGGSLRLSCAASGGIFQPNAMGWYRQAPGKERELVATISQRGGSPYYSDSVKGRFTISRDNAKNTVYLQMNSVKPEDTAVYYCAAEVYYYYDAIYIARYEYWGQGTQVTVSS	low polyreactivity
QVQLVESVGGLVQAGGSLRLSCAASGGTFLFYGMGWYRQAPGKERELVAVITWSGGSTYYADSVKGRFTISRDNAKNTVYLQMKSLKPEDTAVYYCNAANTGSPDYQSIGYNFNYWGQGTQVTVSS	low polyreactivity
QVQLVESVGGLVQAGGSLRLSCAASGIFRQNAMGWYRQAPGKERELVAGISQSGGSTYYADSVKGRFTISRDNAKNTVYLQMNSLKPEDTAVYYCAVVSIWGYDYWGQGTQVTVSS	low polyreactivity
QVQLVESVGGLVQAGGSLRLSCAASGITFDDYAMGWYRQAPGKERELVAVISSSGGSTYYADSVKGRFTISRDNAKNTVYLQMNSLKPEDTAVYYCAARFEVWYTRRVLLGEYDYWGQGTQVTVSS	low polyreactivity
QVQLVESVGGLVQAGGSLRLSCAASGLIFHRYAMGWYRQAPGKERELVAAISSSGGITYYADSVKGRFTISRDNAKNTVYLQMNSLKPVDTAVYYCPADTGKGSPFSAGLGRAGDYWGHGTQVTVSS	low polyreactivity
QVQLVESVGGLVQAGGSLRLSCAASGNTFKYYAMGWYRQAPGKERELVAGITWTGGRTNYADSVKGRFTISRDNAKNTVYLQMNSLKPEDTAVYYCAADYWWYTGYDYWGQGTQVTVSS	high polyreactivity
QVQLVESVGGLVQAGGSLRLSCAASGNTLVYYDMGWYRQAPGKERELVAAISWSTGSTYYADSVKGRFTISRDNAKNTVYLQMNSLKPEDTAVYYCAAEPELDEYEHDYWGQGTQVTVSS	low polyreactivity
QVQLVESVGGLVQAGGSLRLSCAASGRIFGGYALGWYRQAPGKERELVAAITSSGSTNYADSVKGRFTISRDNAMNTVYLQMNSLKQEDTAVYYCANDFKTVYYWWGMDYWGQGTQVTVSS	low polyreactivity
QVQLVESVGGLVQAGGSLRLSCAASGRIFGPYVMGWYRQAPGKERELVAAISTSGTSTYYADSVKGRFTISRDNAKNTDYLPMNSLKPEDTAVYYCAIRSGARHRLMDYWGQGTQVTVSS	low polyreactivity
QVQLVESVGGLVQAGGSLRLSCAASGRIFLYYAIGWYRQAPGKERELVAVISWSGGSTYYADSVKGRFTISRDNAKNTVYLQMNILKPEDTAVYYCAADVVPTWYGYNYDYWGQGTQVTVSS	high polyreactivity

Sequence	polyreactivity (PSR sort gate)
QVQLVESVGGLVQAGGSLRLSCAASGRIFPAYAMGWYRQAPGKERELVASIRRGGITYADSVKGRFTISRDNAKNTVYLQMKSLKPEDTAVYYCNADYRGWGYHMDYWGQGTQVTVSS	low polyreactivity
QVQLVESVGGLVQAGGSLRLSCAASGRIFYLYAMGWYRQEPGKERELVAVISYGGDRTSYADSVKGRFTISRDNAKNTVYLQMNSLKPEDTAVYYCAARPFYRGYYYWGQGTQVTVSS	high polyreactivity
QVQLVESVGGLVQAGGSLRLSCAASGRMFAKYAMGWYRQAPGKERELVPISSSVGRTYYADSVKGRFTISRDNAKNTVSLHMHSLKPEDTAVYYCNAKPRWYVPYDYSGQGTQVTVSS	high polyreactivity
QVQLVESVGGLVQAGGSLRLSCAASGRPSNRYAMGWYRQAPGKERELVAAISGRGGSTYYADSVKGRFTISRDNAKNTVYLQMNSLKPEDTAVYYCAKQWYVAKISYDYWGQGTQVTVSS	high polyreactivity
QVQLVESVGGLVQAGGSLRLSCAASGRRTIRYNAMGWYRQAPGKEREFVASISRSGGSTYYADSVKGRFTISRDNAKNTVYLQMNSLKPEDTAVYYCAAAASHLVAYGWGYEYYYWGQGTQVTVSS	high polyreactivity
QVQLVESVGGLVQAGGSLRLSCAASGRTFAPNFMGWYRQAPGKERELVAAITYSSASTYYADSVKGRFTISRDNAKNTVYLQMNSLKPEDTAVYYCAARDRYYFGGMYYWGQGTQVTVSS	low polyreactivity
QVQLVESVGGLVQAGGSLRLSCAASGRTFTGNAMGWYRQAPGKERELVAAISQRGGRTNYADSVKGRFTISRDNAKNTVYLQMNSLKPEDTAVYYCAADQSYPKRLPSFEYWGQGTQVTVSS	low polyreactivity
QVQLVESVGGLVQAGGSLRLSCAASGRTFTTNAMGWYRQAPGKERELVAAITIGDDTYYADSVKGRFTISRDNAKNTVYLQMNSLKPEDTAVYYCAADYKRVPFVTQYVSKDGYWGQGTQVTVSS	low polyreactivity
QVQLVESVGGLVQAGGSLRLSCAASGRTFTYNSMGSYRQAPGKERELVAAITRRGGSTYYADSVKGRFTISRDNAKNTVYLQMNSLKPEDTAVYYCAATGYLRTYDYWGQGTQVTVSS	high polyreactivity
QVQLVESVGGLVQAGGSLRLSCAASGRTFVGNTMGWYRQAPGKERELVAAISGSGSRTYYADSVKGRFTISRDNAKNTVYLQMNSLKPEDTGVYYCASQGNYWGQGTQVTVSS	high polyreactivity
QVQLVESVGGLVQAGGSLRLSCAASGRTLGGNAMGWYRQAPGKERELVAAITNSASTYADSVKGRFTISRDNAKNTVYLQMNSLKPEDTAVYYCNAPDPSDQHGDYWGQGTQVTVSS	low polyreactivity
QVQLVESVGGLVQAGGSLRLSCAASGSIFTENAMGWYRQAPGKERELVATITITGSTNYADSVKGRFTISRDNAKNTFYLQMNSLKPEDTEVYYCNADLYIAFSASAYDYWGQGTQVTVSS	low polyreactivity
QVQLVESVGGLVQAGGSLRLSCAASGSIFTWYAMGWYRQAPRKERELVAAITRGGSTYADSVKGRFTISRDNAKNTVYLQMNSLKPEDTAVYYCNAVYGVYDFNYWGQGTQVTVSS	low polyreactivity
QVQLVESVGGLVQAGGSLRLSCAASGSISGYYAMGWYRQAPGKERELVASIRYTGARTYYADSVKGRFTISRDNAKNTVYLQMHSLKPEDTAVYYCAADVNRDRVWGGDYWGQGTQVTVSS	low polyreactivity
QVQLVESVGGLVQAGGSLRLSCAASGSITVANAMGWYSQAPGKESELVAAITDSGDDTYYADSVKGRFTNSRDNAKNTVYLLMNSLKAEDTAVYYCAVEAWSVPPYDYWGQGTQVTVSS	low polyreactivity
QVQLVESVGGLVQAGGSLRLSCAASGSTFAFYDMGWYRQAPGKERELVAAISQSDGDTYYADSVKGRFTISRDNAKNTVYLQMNSLKPEDTAVYYCAAETAHTPEYERGSDYWGQGTQVTVSS	low polyreactivity
